Among the data in patent publication US20250197493A1 are EC50 values, retold here.

In test [1] the target is cell membrane-expressed cynomolgus LAG-3 (cynomolgus monkey). The test is described as follows: flow cytometry, SEB-activated cynomolgus PBMCs, CD8 T cells, percent of cells bound (isotype control). (In general: In flow cytometry, cells or beads pass a laser one at a time.)
For test [2] the target is unchanged. Description: flow cytometry, SEB-activated cynomolgus PBMCs, CD4 T cells, percent of cells bound (isotype control).
For test [3], the target named is cell membrane-expressed human LAG-3 (human) (UniProt P18627). The test is described as follows: flow cytometry, SEB-activated human PBMCs, CD8 T cells, percent of cells bound (isotype control).
For test [4] the target is unchanged. The test is described as follows: flow cytometry, SEB-activated human PBMCs, CD4 T cells, percent of cells bound (isotype control).

A word on the EC50: it is the concentration at which the effect is half-maximal. High values mean weaker potency, low ones greater potency.

cell membrane-expressed human LAG-3 (human), sequence (P18627 23-525 limits assumed): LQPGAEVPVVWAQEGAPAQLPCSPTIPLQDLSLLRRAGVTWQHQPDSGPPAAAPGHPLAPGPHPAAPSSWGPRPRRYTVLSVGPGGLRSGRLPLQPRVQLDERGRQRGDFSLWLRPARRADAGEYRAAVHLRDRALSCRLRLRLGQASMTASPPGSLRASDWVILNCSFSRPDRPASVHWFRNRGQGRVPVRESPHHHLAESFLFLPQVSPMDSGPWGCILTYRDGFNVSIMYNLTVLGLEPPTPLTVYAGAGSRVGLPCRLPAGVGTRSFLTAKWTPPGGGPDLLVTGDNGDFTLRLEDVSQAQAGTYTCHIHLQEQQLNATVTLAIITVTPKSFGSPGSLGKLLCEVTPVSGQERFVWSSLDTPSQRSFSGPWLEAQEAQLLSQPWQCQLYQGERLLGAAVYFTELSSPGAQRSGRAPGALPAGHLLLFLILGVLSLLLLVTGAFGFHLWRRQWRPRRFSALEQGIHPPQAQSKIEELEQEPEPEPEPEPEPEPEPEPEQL

Consider Isotype hG1 (antibody), for which the EC50 in test [1] was 8.66 µg/mL; in test [2], 2450 µg/mL; in test [3] it was 0.676 µg/mL; in test [4] it was 0.39 µg/mL.
